Measured values as given in paper PMC5052646, “DNA annealing by Redβ is insufficient for homologous recombination and the additional requirements involve intra- and inter-molecular interactions” (Scientific Reports, 2016).

Columns and labels:
[1] = target: T1, wt Redβ, Strep-tag II tagged, purified (λ phage), P03698; test: ITC; Redα (150 μM) injected in 2 μl steps at 3 min intervals into the cell with Redβ (15 μM); 25 °C; 20 mM HEPES, 150 mM sodium chloride, 1 mM magnesium chloride, 0.5 mM TECP, pH 8; single-site binding model; details: remark: other sources report otherwise
T1 chain: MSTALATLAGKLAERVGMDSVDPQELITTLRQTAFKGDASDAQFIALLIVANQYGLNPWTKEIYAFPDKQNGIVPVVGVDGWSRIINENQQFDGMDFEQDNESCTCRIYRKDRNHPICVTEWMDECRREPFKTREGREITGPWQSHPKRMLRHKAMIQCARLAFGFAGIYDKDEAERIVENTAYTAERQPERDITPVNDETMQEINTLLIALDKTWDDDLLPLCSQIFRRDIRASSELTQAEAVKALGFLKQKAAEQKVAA

[2] = target: the molecule itself; test: SEC-MALS; SEC peaks analysed by DLS and SLS/MALS (Dawn Heleos II); purified Redβ proteins injected at 1 mg/ml; species after elution (dilution); without DNA
Redβ wt [3] = target: T2, Redβ wt (phage lambda, UniProt P03698 1-261); test: EMSA; 10 uM protein, 1 uM DNA; weak ssDNA binding (smear), non-complementary Cy5 oligo added; EMSA: 10 uM protein, 1 uM DNA, 20 mM Tris-HCl pH 7.5, 10 mM NaCl, 10 mM MgCl2, 37 C 30 min (+30 min after complementary oligo), 1.2-1.6% agarose, 2x TBE; details: protein: recombinant; single strand
T2 sequence: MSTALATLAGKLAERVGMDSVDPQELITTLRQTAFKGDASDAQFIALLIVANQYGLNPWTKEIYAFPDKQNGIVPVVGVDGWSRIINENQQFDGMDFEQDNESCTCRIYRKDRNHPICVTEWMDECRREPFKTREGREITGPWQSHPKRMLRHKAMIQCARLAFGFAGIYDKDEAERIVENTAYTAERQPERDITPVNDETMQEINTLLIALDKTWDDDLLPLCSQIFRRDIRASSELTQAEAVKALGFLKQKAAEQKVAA

C3Redβ [4] = target: T3, C3Redβ (phage lambda, UniProt P03698 1-185); test: as above; details: protein: recombinant; tags: Strep-tag II; N-terminal per Methods, C-terminal per legends; single strand
T3 sequence: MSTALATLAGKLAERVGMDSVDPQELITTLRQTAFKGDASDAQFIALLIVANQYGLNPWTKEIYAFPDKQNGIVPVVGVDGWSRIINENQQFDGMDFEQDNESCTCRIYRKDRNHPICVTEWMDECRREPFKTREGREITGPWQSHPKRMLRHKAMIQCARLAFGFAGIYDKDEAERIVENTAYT

Redβ wt [5] = target: T2, Redβ wt; test: EMSA; sequential addition of strands; annealed nucleoprotein filament; EMSA: 10 uM protein, 1 uM DNA, 20 mM Tris-HCl pH 7.5, 10 mM NaCl, 10 mM MgCl2, 37 C 30 min (+30 min after complementary oligo), 1.2-1.6% agarose, 2x TBE; details: protein: recombinant; label: 5'-Cy3 on one strand, 5'-Cy5 on the other; 49 bp, 5' overhang 1 nt at each end as printed; annealed by the protein
C3Redβ [6] = target: T3, C3Redβ; test: as above; details: protein: recombinant; tags: Strep-tag II; N-terminal per Methods, C-terminal per legends; label: 5'-Cy3 on one strand, 5'-Cy5 on the other; 49 bp, 5' overhang 1 nt at each end as printed; annealed by the protein

B1: Redα, Strep-tag II tagged, purified, P03697 1-226 (enzyme)
chain: MTPDIILQRTGIDVRAVEQGDDAWHKLRLGVITASEVHNVIAKPRSGKKWPDMKMSYFHTLLAEVCTGVAPEVNAKALAWGKQYENDARTLFEFTSGVNVTESPIIYRDESMRTACSPDGLCSDGNGLELKCPFTSRDFMKFRLGGFEAIKSAYMAQVQYSMWVTRKNAWYFANYDPRMKREGLHYVVIERDEKYMASFDEIVPEFIEKMDEALAEIGFVFGEQWR
**Q.** B1 was tested. Which Kd [1] did it give?
**A.** 7.9 µM

**Q.** And the dH [1]?
**A.** -9.84 kcal/mol

B2: wt Redβ, Strep-tag II tagged, purified (natural protein, λ phage, UniProt P03698 1-261, looked up)
chain: MSTALATLAGKLAERVGMDSVDPQELITTLRQTAFKGDASDAQFIALLIVANQYGLNPWTKEIYAFPDKQNGIVPVVGVDGWSRIINENQQFDGMDFEQDNESCTCRIYRKDRNHPICVTEWMDECRREPFKTREGREITGPWQSHPKRMLRHKAMIQCARLAFGFAGIYDKDEAERIVENTAYTAERQPERDITPVNDETMQEINTLLIALDKTWDDDLLPLCSQIFRRDIRASSELTQAEAVKALGFLKQKAAEQKVAA
notes: Redβ, single strand annealing protein of λ phage; the ORF cloned into pASK-IBA2; 261 residues by the printed limits of the truncations; also called wild type Redβ; not shown: Strep-tag II, C-terminal, kept
**Q.** B2 was tested. Which “Dist (%) of Species 3 (1 subunit, monomer)” value (“Dist (%)” for short) [2] did it give?
**A.** 68.2%

B3: C3Redβ (1–185), Strep-tag II tagged, purified (domain or fragment, λ phage, UniProt P03698 1-185, looked up)
chain: MSTALATLAGKLAERVGMDSVDPQELITTLRQTAFKGDASDAQFIALLIVANQYGLNPWTKEIYAFPDKQNGIVPVVGVDGWSRIINENQQFDGMDFEQDNESCTCRIYRKDRNHPICVTEWMDECRREPFKTREGREITGPWQSHPKRMLRHKAMIQCARLAFGFAGIYDKDEAERIVENTAYT
notes: Redβ of λ phage, residues 1-185 (C-terminal truncation C3); also called C3 deletion; C3-truncated Redβ; not shown: Strep-tag II, C-terminal, kept
**Q.** For B3, which “Dist (%)” value [2] is on record?
**A.** 9.3%

B4: N1Redβ (20–261), Strep-tag II tagged, purified (domain or fragment, λ phage, UniProt P03698 20-261, looked up)
chain: SVDPQELITTLRQTAFKGDASDAQFIALLIVANQYGLNPWTKEIYAFPDKQNGIVPVVGVDGWSRIINENQQFDGMDFEQDNESCTCRIYRKDRNHPICVTEWMDECRREPFKTREGREITGPWQSHPKRMLRHKAMIQCARLAFGFAGIYDKDEAERIVENTAYTAERQPERDITPVNDETMQEINTLLIALDKTWDDDLLPLCSQIFRRDIRASSELTQAEAVKALGFLKQKAAEQKVAA
notes: Redβ of λ phage, residues 20-261 (N-terminal truncation N1); also called N1 deletion; not shown: Strep-tag II, C-terminal, kept
**Q.** With B4 as the binder, how does the “Dist (%)” value [2] read?
**A.** 7.4%

**Q.** Which results are given for CCATCCGCAAAAATCGAGCTATGCAGGGCGATTCTGCTCTAAGCCATCCG (ssDNA) [Cy3 50-mer ssDNA]?
**A.** binding result (Redβ wt [3]): binds; binding result (C3Redβ [4]): binds

B5: 50-mer complementary pair, sequentially added (dsDNA)
DNA 1: CCATCCGCAAAAATCGAGCTATGCAGGGCGATTCTGCTCTAAGCCATCCG
DNA 2: GCGGATGGCTTAGAGCAGAATCGCCCTGCATAGCTCGATTTTTGCGGATG
**Q.** Does B5 bind (Redβ wt [5])?
**A.** binds

**Q.** Does B5 bind (C3Redβ [6])?
**A.** binds
